{"source": "patent US20240158515A1", "about": "“ANTI-FGFR3 ANTIBODIES AND ANTIGEN-BINDING FRAGMENTS AND METHODS OF USE THEREOF” (Regeneron Pharmaceuticals, Inc., priority 2022, published 2024)", "key": {"[1]": {"test_system": "CD73 protein level in UMUC14 cells", "test": "CD73 expression in UMUC14 cells in vitro, Western blot", "assay_type": "cell-based", "conditions": "1 nM, 10 nM, 100 nM, 48 hrs, FIG. 6", "experimental": "To investigate the effect of anti-FGFR3 antibody or tyrosine kinase inhibitor (AZD4547; commercially available) on CD73 expression, UMUC14 bladder cancer cells were seeded in 6 well tissue culture plate (Corning) in complete medium (MEM medium with 10% FBS, 1% Non-Essential Amino Acids, Pen/Strep) and cultured overnight at 37° C. 5% CO2. Cells were then treated with antibodies or inhibitors at indicated concentration (100 nM, 10 nM or 1 nM) for 48 hrs. Cells were washed with pre-chilled PBS and collected in lysis buffer containing protease and phosphatase inhibitors. Equal amount of cell lysates were analyzed by SDS-PAGE. Blots were blocked in 0.5% Tween 20 in Tris buffered saline (TBS) containing 5% non-fat dry milk followed by overnight incubation with anti-CD73 primary antibody (Cell Signaling Technology). After washing 3× with TBST and incubation with secondary antibody, membranes were developed with SuperSignal West Pico or Femto substrate and luminescence images were captured with a C300 imager (Azure Biosystems)."}, "[2]": {"test_system": "BaF3 cells expressing FGFR3 S249C", "test": "BaF3 proliferation assay, FGFR3 S249C (TKI resistance study)", "assay_type": "cell-based, murine", "conditions": "72 h, CellTiter-Glo, FIG. 12A left; read-out: IC50, growth of BaF3 cells expressing FGFR3 S249C", "experimental": "(§1) IL-3 dependent murine pro B cell line BaF3 cells were engineered to stably express full length human FGFR3b S249C, V557L, V557M, S249C/V557L, S249C/V557M (accession number for WT FGFR3b NP_001156685.1, amino acids M1-T808). Cells were maintained in RPMI 1640+10% FBS+P/S/G+1 ng/ml mouse IL-3+500 ug/ml Neomycin; 37° C. 5% CO2. For proliferation assays, cells were washed with IL-3-free culture media and plated at 10^5 cells/well into 96-well black wall tissue culture plates. Cells were treated with 1:3 serially diluted antibody as indicated in the presence or absence of 5 μg/ml heparin and 1 nM human FGF1. After addition of antibodies, cells were incubated at 37° C./5% CO2 for 72 h followed by the addition of an equal volume of CellTiter-Glo™ (Promega) reagent to lyse cells and detect luciferase activity. Luminescence signal was quantitated with Envision plate reader (PerkinElmer). EC50 values of the antibodies were determined using GraphPad Prism software."}, "[3]": {"test_system": "CD73 protein level in Fadu S249C tumors", "test": "CD73 expression in Fadu S249C tumors in vivo, Western blot", "set-up": "species or system SCID mice", "conditions": "FGFR3 mAb 15 mg/kg one intraperitoneal dose; AZD4547 25 mg/kg daily gavage; FIG. 11A-11B", "experimental": "To test the effect of anti-FGFR3 inhibitory antibody or tyrosine kinase inhibitor (AZD4547) on CD73 expression in vivo, tumor cells (5×10^6 UMUC14, 3×10^6 Fadu EV or S249C, in 50% Matrigel) were implanted subcutaneously into the right flank of 6 to 8-week-old female SCID mice (Jackson Laboratory). Once tumors were established (˜200 mm^3 in volume), mice were randomized into treatment groups (n=5-6 mice per group) and injected intraperitoneally once with anti-FGFR3 antibodies (15 mg/kg) or isotype control. Tyrosine kinase inhibitor AZD4547 (25 mg/kg) was administered once daily by oral gavage for 3 days. Tumors were collected 4 days post treatment initiation. Tumors were collected, snap frozen and lysed in RIPA buffer. Equal amount of tumor lysates were analyzed by SDS-PAGE and blotted with anti-CD73 and anti-FGFR3 antibodies as described above. Membranes were developed with SuperSignal West Pico or Femto substrate and luminescence images were captured with a C300 imager (Azure Biosystems). Intensity of each CD73 and actin band was quantitated using Image J (NIH), and the ratio of CD73/actin for each sample were graphed using Prism Graphpad."}, "[4]": {"test_system": "BaF3 cells expressing FGFR3 S249C/V557L", "test": "BaF3 proliferation assay, FGFR3 S249C/V557L", "assay_type": "cell-based, murine", "conditions": "FIG. 12A right", "experimental": "as §1"}, "[5]": {"test_system": "BaF3 cells expressing FGFR3 S249C/V557M", "test": "BaF3 proliferation assay, FGFR3 S249C/V557M", "assay_type": "cell-based, murine", "conditions": "FIG. 12B", "experimental": "as §1"}, "[6]": {"biological_target": "T1, hFGFR3c-hFc binding to hFGF acidic protein (Homo sapiens, UniProt P22607)", "T1 construct": "hFGFR3c extracellular domain (amino acids Glu23-Gly375); purchased R&D Systems 766-FR-050", "T1 sequence (P22607 23-375)": "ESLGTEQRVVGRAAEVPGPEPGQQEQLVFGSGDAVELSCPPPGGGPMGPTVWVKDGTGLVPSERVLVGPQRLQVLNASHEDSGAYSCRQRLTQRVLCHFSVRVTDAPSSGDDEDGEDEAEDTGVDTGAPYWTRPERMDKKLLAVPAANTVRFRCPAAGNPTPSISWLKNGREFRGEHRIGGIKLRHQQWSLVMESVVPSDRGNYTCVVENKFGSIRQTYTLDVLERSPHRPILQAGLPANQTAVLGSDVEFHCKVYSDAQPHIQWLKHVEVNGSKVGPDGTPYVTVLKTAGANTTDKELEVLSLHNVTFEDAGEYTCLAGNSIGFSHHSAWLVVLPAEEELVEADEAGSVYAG", "test": "ELISA blocking of hFGFR3c-hFc binding to hFGF acidic", "source_text": "(§2) An ELISA-based blocking assay was developed to determine the ability of anti-FGFR3 antibodies to block the binding of human fibroblast growth factor receptor 3 isoform b (hFGFR3b) or human fibroblast growth factor receptor 3 isoform c (hFGFR3c) to human fibroblast growth factor acidic (hFGF acidic) or basic (hFGF basic) ligands.\n(§3) The human FGFR3b recombinant protein used in the experiments had the hFGFR3b extracellular domain (amino acids E23-G377) expressed with the Fc portion of the mouse IgG2a at the C-terminus (amino acids E98-K330) (hFGFR3b-mFc, accession #NM_001163213.1). The hFGFR3c and hFGF acidic proteins were purchased commercially. […]\n(§4) In the blocking assay, a 96-well microtiter plate was coated with either hFGF acidic or hFGF basic proteins at […] in PBS+10 mg/ml heparin overnight at 4° C. […] After a 1 hour incubation at room temperature, plates were washed, and plate-bound hFGFR3b-mFc or hFGFR3c-hFc proteins were detected with horseradish peroxidase (HRP) conjugated goat anti-mouse or goat anti-human Fcγ fragment specific antibodies. The plates were then developed using TMB substrate solution (BD Biosciences) according to the manufacturer's recommended procedure and absorbance at 450 nm was measured on a Victor X5 plate reader.\n(§5) Binding data were analyzed using a sigmoidal (four-parameter logistic) dose-response model using GraphPad Prism software. […]"}, "[7]": {"biological_target": "T2, hFGFR3c-hFc binding to hFGF basic protein (Homo sapiens, UniProt P22607)", "T2 construct": "hFGFR3c extracellular domain (amino acids Glu23-Gly375); purchased R&D Systems 766-FR-050", "T2 sequence (P22607 23-375)": "T1 sequence (P22607 23-375)", "test": "ELISA blocking of hFGFR3c-hFc binding to hFGF basic", "source_text": "as §2, §3, §4, §5"}, "[8]": {"biological_target": "T3, human FGFR3c (hFGFR3c.mmH, REGN3155) (Homo sapiens, UniProt P22607)", "T3 construct": "REGN3155 (human FGFR3c expressed with a C-terminal myc-myc-hexahistidine tag)", "T3 sequence (P22607 with tags, fused parts or gaps)": "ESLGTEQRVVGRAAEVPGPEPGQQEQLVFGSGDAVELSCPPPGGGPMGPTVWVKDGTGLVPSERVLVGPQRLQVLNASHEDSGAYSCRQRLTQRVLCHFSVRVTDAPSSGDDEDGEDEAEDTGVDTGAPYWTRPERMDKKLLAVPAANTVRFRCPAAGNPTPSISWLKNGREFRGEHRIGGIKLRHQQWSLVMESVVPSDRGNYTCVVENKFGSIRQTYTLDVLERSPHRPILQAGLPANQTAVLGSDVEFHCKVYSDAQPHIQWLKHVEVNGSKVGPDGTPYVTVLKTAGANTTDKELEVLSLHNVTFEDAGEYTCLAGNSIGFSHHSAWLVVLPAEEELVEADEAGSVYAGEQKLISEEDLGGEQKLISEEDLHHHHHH", "test": "Biacore SPR binding kinetics, monomeric human FGFR3c to captured antibodies", "conditions": "25° C.", "experimental": "(§6) Biacore binding kinetics of anti-FGFR3 antibodies, in an antibody capture format, to monomeric human FGFR3b, cynomolgus FGFR3b, murine FGFR3b, human FGFR3c, and dimeric human FGFR3b ecto domain recombinant proteins at 25° C. were analyzed.\n(§7) Equilibrium dissociation constants (KD values) for human FGFR3b expressed with a C-terminal myc-myc-hexahistidine tag (hFGFR3b.mmH, REGN3152) or cynomolgus FGFR3b expressed with a C-terminal myc-myc-hexahistidine tag (mfFGFR3b.mmH, REGN3521), or murine FGFR3b expressed with a C-terminal myc-myc-hexahistidine tag (mFGFR3b.mmH, REGN3215) or human FGFR3c expressed with a C-terminal myc-myc-hexahistidine tag (hFGFR3c.mmH, REGN3155) or human FGFR3b expressed with an C-terminal murine Fc tag (hFGFR3b.mFc, REGN3153) binding to purified anti-FGFR3 antibodies were determined using a real-time surface plasmon resonance biosensor technology using a Biacore 3000 or Biacore 4000 instrument. […] Antibody-reagent association was monitored for 5 minutes while dissociation in HBS-EP running buffer was monitored for 10 minutes. […]\n(§8) The specific SPR-Biacore sensorgrams were obtained by a double referencing procedure. […] Kinetic association (ka) and dissociation (kd) rate constants were determined by fitting the real-time sensorgrams to a 1:1 binding model using Scrubber v2.0c curve fitting software. […]"}, "[9]": {"biological_target": "T4, human FGFR3b (hFGFR3b.mmH, REGN3152) (Homo sapiens, UniProt P22607)", "T4 construct": "REGN3152 (human FGFR3b expressed with a C-terminal myc-myc-hexahistidine tag)", "T4 sequence (P22607 with tags, fused parts or gaps isoform P22607-2)": "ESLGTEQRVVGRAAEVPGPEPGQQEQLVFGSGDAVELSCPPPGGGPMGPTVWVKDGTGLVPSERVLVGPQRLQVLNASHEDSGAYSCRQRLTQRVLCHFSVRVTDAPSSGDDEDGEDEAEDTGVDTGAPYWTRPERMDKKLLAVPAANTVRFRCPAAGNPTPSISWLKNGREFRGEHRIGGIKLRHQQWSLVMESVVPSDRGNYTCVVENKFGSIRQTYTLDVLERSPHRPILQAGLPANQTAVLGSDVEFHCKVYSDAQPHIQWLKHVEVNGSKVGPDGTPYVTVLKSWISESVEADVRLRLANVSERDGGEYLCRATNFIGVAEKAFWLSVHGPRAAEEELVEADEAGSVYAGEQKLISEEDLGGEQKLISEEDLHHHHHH", "test": "Biacore SPR binding kinetics, monomeric human FGFR3b to captured antibodies", "conditions": "25° C.", "experimental": "as §6, §7, §8"}}}
{"substance": "AZD4547 [reference compound]", "values": [{"measurement": "CD73 expression in UMUC14 cells in vitro (in words)", "setting": "[1]", "value": "dose dependent downregulation of CD73 expression"}, {"measurement": "IC50", "setting": "[2]", "value": 9.9, "unit": "nM"}, {"measurement": "CD73 expression in Fadu S249C tumors in vivo (in words)", "setting": "[3]", "value": "decreased expression of CD73 relative to mice treated with control"}, {"measurement": "growth inhibition of BaF3 cells expressing FGFR3 S249C+V557L (in words)", "setting": "[4]", "value": "ineffective"}, {"measurement": "growth inhibition of BaF3 cells expressing FGFR3 S249C+V557M (in words)", "setting": "[5]", "value": "ineffective"}]}
{"substance": "REGN6331: comparator; relates to FGFR3b mAb, hIgG1 (mAb 184.6.1 N54S, Genentech); HC SEQ ID NO: 244, LC SEQ ID NO: 243 [reference compound]", "values": [{"measurement": "Antibody blocking 0.4 nM hFGFR3c-hFc binding to hFGF acidic protein, % Blocking at 200 nM mAb", "setting": "[6]", "value": 86, "unit": "%"}, {"measurement": "Antibody blocking 7 nM hFGFR3c-hFc binding to hFGF basic protein, % Blocking at 200 nM mAb", "setting": "[7]", "value": 87, "unit": "%"}, {"measurement": "ka", "setting": "[8]", "value": 544000, "unit": "M⁻¹ s⁻¹"}, {"measurement": "kd", "setting": "[8]", "value": 0.00132, "unit": "s⁻¹"}, {"measurement": "ka", "setting": "[9]", "value": 883000, "unit": "M⁻¹ s⁻¹"}, {"measurement": "kd", "setting": "[9]", "value": 0.000616, "unit": "s⁻¹"}]}
